In patent US20160024208A1 (Regeneron, published 2016):
Like-named read-outs stand apart in the source and are kept apart here.

T1: Native Nav1.7 (3-1) peptide, human (human)
T1 construct: Synthetic peptide (Celtek), unbiotinylated; also called Human Nav1.7 3-1 native; Nav1.7 3-1 native peptide
T1 peptide: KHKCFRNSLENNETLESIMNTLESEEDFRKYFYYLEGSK

T2: N-Term Biotin Nav1.7 (3-1) peptide, mulatta (mulatta (monkey), not fully specified; N-terminal biotin attached via a G4S linker)
T2 construct: Synthetic peptide; also called Mulatta Nav1.7 3-1 N-term biotin; monkey
T2 peptide: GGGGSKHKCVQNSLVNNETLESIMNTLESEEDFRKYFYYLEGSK

T3: N-Term Biotin Nav1.7 (3-1) peptide, mouse (mouse, not fully specified; N-terminal biotin attached via a G4S linker)
T3 construct: Synthetic peptide; also called Mouse Nav1.7 3-1 N-term biotin
T3 peptide: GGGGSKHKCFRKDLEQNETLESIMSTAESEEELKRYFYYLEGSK

T4: C-Term Biotin Nav1.7 (3-3) peptide, mouse (mouse, C-terminal biotin attached via a G4S linker)
T4 construct: Synthetic peptide; also called Mouse Nav1.7 3-3 C-term biotin
T4 peptide: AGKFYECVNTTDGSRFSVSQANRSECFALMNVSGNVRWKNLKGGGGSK

T5: C-term Biotin Nav1.7 (3-3) peptide, human (human, C-terminal biotin attached via a G4S linker)
T5 construct: Synthetic peptide; also called Human Nav1.7 3-3 C-term biotin
T5 peptide: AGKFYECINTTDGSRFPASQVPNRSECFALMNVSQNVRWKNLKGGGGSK

T6: Native Nav1.7 (3-3) peptide, human (human)
T6 construct: Synthetic peptide, unbiotinylated; also called Human Nav1.7 3-3 native; Nav1.7 3-3 native peptide
T6 peptide: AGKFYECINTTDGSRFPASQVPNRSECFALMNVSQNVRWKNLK

T7: N-Term Biotin-Nav1.7 (3-3) peptide, human (same sequence of EC3-3 for mulatta) (human (same sequence of EC3-3 for …, not fully specified; N-terminal biotin attached via a G4S linker)
T7 construct: ELISA peptide
T7 peptide: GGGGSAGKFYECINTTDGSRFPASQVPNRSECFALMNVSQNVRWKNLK

T8: Native Nav1.7 (3-1) peptide, rat (rat)
T8 construct: Synthetic peptide; also called Rat Nav1.7 3-1 native
T8 peptide: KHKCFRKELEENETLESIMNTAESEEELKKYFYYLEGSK


How the values were obtained:
[1] = target: T1, Native Nav1.7 (3-1) peptide, human; assay: SPR, captured antibody, peptide analyte
Summary of the method: (§1)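 Peptide analytes flowed at multiple concentrations over anti-Nav1.7 antibodies held by an anti-Fc capture surface. After reference-surface and buffer-blank subtraction, a global 1:1 Langmuir fit gave ka and kd, with KD as kd/ka and dissociative half-life as ln2/kd.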

[2] = target: T2, N-Term Biotin Nav1.7 (3-1) peptide, …; assay: SPR, captured antibody, peptide analyte
Summary of the method: as §1

[3] = target: full-length human Nav1.7 fused at its N-terminus to GFP, expressed in HEK293 cells (human, UniProt Q15858 1-1988); assay: cell-based or functional assay
[4] = target: T3, N-Term Biotin Nav1.7 (3-1) peptide, …; assay: SPR, captured antibody, peptide analyte
Summary of the method: as §1

[5] = target: T4, C-Term Biotin Nav1.7 (3-3) peptide, …; assay: SPR, captured antibody, peptide analyte
Summary of the method: as §1

[6] = target: T5, C-term Biotin Nav1.7 (3-3) peptide, …; assay: SPR, captured biotin-peptide, antibody analyte
[7] = target: T6, Native Nav1.7 (3-3) peptide, human; assay: Biacore (second token of ELISA/Biacore summary)
[8] = target: T6, Native Nav1.7 (3-3) peptide, human; assay: Biacore (second token of ELISA/Biacore summary)
[9] = target: T7, N-Term Biotin-Nav1.7 (3-3) peptide, …; assay: ELISA on coated peptide, antibody 1 ug/ml, OD450 grade; Human
Procedure: (§2) Anti-Naᵥ 1.7 antibodies were tested for their ability to bind to the Naᵥ 1.7 peptides. The various peptides were coated overnight onto 96-well Nunc Immunosorp plates at a concentration of 4 μg/mL in PBS, followed by blocking for 1 hour in a suitable blocking agent. For biotinylated peptides, avidin was first coated on Nunc Immunosorp plates at 2 μg/mL in PBS overnight, followed by blocking as described, and the plate was then coated with biotinylated peptides at a concentration of 0.4 μg/mL and incubated for 1 hour at room temperature. Purified anti-Naᵥ 1.7 antibodies were diluted to a final concentration of 0.1 μg/mL and 1.0 μg/mL and added to the wells of the coated microtiter plates followed by incubation for 1 hour at room temperature. Bound antibodies were detected with horseradish peroxidase (HRP) conjugated anti-mouse or anti-human IgG (Jackson Immuno Research Lab, West Grove, Pa.) depending on the antibody species and developed by colorimetric response using tetramethylbenzidine (TMB) substrate (BD Biosciences). Absorbance was read at OD₄₅₀ on a plate reader for 0.1 second.
(§3) Values in Table 11 represent absolute binding ranges (at OD450) to plate-coated peptides for antibodies added at 1 μg/ml as follows: OD450<0.2: −; 0.2<OD450<1: +; 1<OD450<2: ++; 2<OD450<4: +++; NT: Not Tested.

[10] = target: T7, N-Term Biotin-Nav1.7 (3-3) peptide, …; assay: ELISA on coated peptide, antibody 1 ug/ml, OD450 grade; Monkey column
Procedure: as §2, §3

[11] = target: T3, N-Term Biotin Nav1.7 (3-1) peptide, …; assay: ELISA on coated peptide
Summary of the method: (§4)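 Binding graded from absorbance at OD450 for antibodies applied at 1 μg/ml (− below 0.2, + 0.2–1, ++ 1–2, +++ 2–4; NT not tested); antibodies were also run at 0.1 μg/mL. Biotin-peptides at 0.4 μg/mL on avidin-coated plates, other peptides at 4 μg/mL; 1 h RT binding; HRP anti-IgG/TMB detection.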

[12] = target: T8, Native Nav1.7 (3-1) peptide, rat; assay: ELISA on coated peptide
Summary of the method: as §4

| Kd [1] | t1/2 [1] | Kd [2] | t1/2 [2] | Current blocking (Average % inhibition), IonWorks Quattro, 223 nM antibody [3] | Kd [4] | t1/2 [4] | binding result [5] | Kd [6] | t1/2 [6] | Kd [7] | Kd [8] | OD450 [9] | OD450 [10] | OD450 [11] | OD450 [12] | binding result [4] | Binder |
| --- | --- | --- | --- | --- | --- | --- | --- | --- | --- | --- | --- | --- | --- | --- | --- | --- | --- |
| 332 nM | 0.3 min | 18.1 nM | 1.7 min | – | – | – | – | – | – | – | – | – | – | – | – | – | H1M836N (antibody, V domains shown) VH: QVQLVESGGGVVQPGRSLRLSCAASGFTFSSYGMHWVRQAPGKGLEWVAVISYDGNNKYYADSVKGRFTISRDNSKNTLYLQMNSLRAEDTAVYYCAKGSAGYALDYWGQGTLVTVSS VL: not shown |
| 0.462 nM | 16 min | 0.435 nM | 43.7 min | -31% | 7.4 nM | 4.6 min | – | – | – | – | – | – | – | – | – | – | H1M797N (antibody, V domains shown) VH: QVQLVESGGGVVQPGRSLRLSCAASGFTFSSYGMHWVRQAPGKGLEWVAVISYDGNNKHFADSVKGRFTISRDNSKNTLNLQMNSLRAEDRAVYYCARGASGFVLDIWGQGTMVTVSS VL: DIVMTQTPLSSPVTLGQPASISCRSSQSLVRSDGNTYLSWLQQRPGQPPRLLIYKISNRFSGVPDRFSGSGAGTDFTLKISRVEAEDVGIYFCMQTTQFPFTFGPGTKVDIK |
| 3.73 nM | 4.3 min | 0.889 nM | 16.8 min | – | 3.53 nM | 4.2 min | – | – | – | – | – | – | – | – | – | – | H1M801N (antibody, V domains shown, also called H1H801N) VH: QVQVVESGGGVVQPGRSLRLSCAASGFTFSNYGMHWVRQAPGKGLEWVTVISYDGSNKNYADSVKGRFTISRDNSKNTLYLQMNSLRAEDTAMYYCARGGSGFAFDIWGQGTMVTVSS VL: DIVMTQTPLSSPVTLGQPASISCRSSQSLVRSDGNTYLSWLQQRPGQPPRLLIYKISNRFSGVPDRFSGSGAGTDFTLKISRVEADDVGVYYCMQTTQFPFTFGPGTKVDIK |
| – | – | – | – | 7% | – | – | no binding | 117 nM | 1.3 min | > 200 nM | > 200 nM | 1 to 2 od | 1 to 2 od | – | – | – | H1M852N (antibody, V domains shown, constant region may differ; also called H4H852N) VH: QVQLVESGGGVVQPGRSLTLSCAASGFMFNRFGMHWVRQAPGKGLDWVAVIWYDGSNKYYADSVKGRFTISRDNSKNTLYLQVNSLRAEDTAVYYCAREGTPHYYDSSGLDYWGQGTLVTVSS VL: AIQMTQSPSSLSAYVGDRVTITCRASQDIRNDLGWYQQKPGKAPNLLIYDISSLQSGVPSRFSGSGSGTDFTLTISSLQPEDFATYYCLQDYNYPLTFGGGTKVEIK |
| 16.4 nM | 3.3 min | 6.1 nM | 7.5 min | 64% | 103 nM | 0.62 min | – | – | – | – | – | – | – | – | – | – | H1H1006B (antibody, V domains shown, Fully human antibody; also called H4H1006B-1) VH: EVQLVESGPGLVKSSETLSLKCTVSGGSISSSGYYWGWIRQPPGKGLEWIGSIHRSGSTFYNPSLKSRVTISVDTSKSQFSLRLTSVTAADTSVYFCGRHGRDYYYGMDVWGQGTTVTVSS VL: DIQMTQSPSSVSASVGDRVTITCRSSQDINNWLVWYQQKPGKAPKVLIYGASRLQSGVPSRFSGSGSGTDFTLTISSLQPEDFATYYCQQANSFPLTFGGGTKVEIKR |
| 4.43 nM | 3 min | 1.05 nM | 11.7 min | – | – | – | – | – | – | – | – | – | – | < 0.2 od | < 0.2 od | no binding | H1M879N (antibody, V domains shown, Hybridoma-derived) VH: EVQLVESGGGLVKPGGSLRLSCAASGFTFSSYTIHWVRQAPGKGLEWVSSISSSSSYIYYVDSVKGRFTISRDNAKNSVYLQMNSLRAEDTAVYYCATSSITARGYFDYWGQGTLVTVSS VL: EIVLTQSPATLSLSPGERVTLSCRASQSVSSYLAWYQQKPGQAPRLLIYDASNRATGIPARFSGSGSGTDFTLTISSLEPEDFAVYYCQQRNIWPPTFGQGTKVEIK |
